In PMC8205142 one finds Kd data, which are given here for one substance.

For the experiment, the target named is recombinant venestatin (Strongyloides venezuelensis). Put plainly: ELISA; r-venestatin (4 ug/mL) coated on wells; RAGE or TLR4 (0-4 ug/mL) in buffer A (50 mM Tris-HCl pH 7, 10 mM NaCl, 5 mM CaCl2), ambient temperature, 1 h; detected with anti-RAGE or anti-TLR4 antibodies; KD by Scatchard plot. (In general: An ELISA detects its analyte on a solid surface through an enzyme-linked reagent.)

On to “recombinant human RAGE (receptor for advanced glycation end products) (from UniProt Q15109 23-342)”, for which the Kd (usually the equilibrium constant for the complex coming apart) was determined as 43.6 nM.
